Laboratory results: publication PMC11764377

Key:
[1] = target: Allochromatium tepidum LH1 α2β1 heterodimer subunit (of the Ca2+-free LH1-α2β1 complex) (Allochromatium tepidum); test: cryo-EM structure; LH1-only complex co-expressed in Rsp. rubrum H2 and purified in β-DDM, ~5 mg/mL; C14 symmetry applied; closed ring of 14 αβ-heterodimers
[2] = target: Allochromatium tepidum LH1 α1β1 heterodimer subunit (of the Ca2+-bound LH1-α1β1 complex) (Allochromatium tepidum); test: as above

stoichiometry N [1]	stoichiometry N [2]	Substance
14	–	Allochromatium tepidum LH1 α2β1 heterodimer subunit (of the Ca2+-free LH1-α2β1 complex)
–	14	Allochromatium tepidum LH1 α1β1 heterodimer subunit (of the Ca2+-bound LH1-α1β1 complex)
